{"source": "patent US20090162366A1", "about": "(KIRIN PHARMA, published 2009)", "binders": {"B1": {"name": "N547 (antibody, V domains shown)", "VH": "not shown", "VL": "QSVLTQPPSMSAAPGQKVTISCSGSSSNIGNNYISWYQQLPGTAPKVLIYDNNKRPSGIPDRFSGSKSGTSATLGITGLQTGDEADYYCGSWDSSLSAGVFGTGTKVTVLG"}, "B2": {"name": "C40 (antibody, V domains shown)", "VH": "QLQLQESGPGLVKPSETLSLTCTVSGGSISSSFYYCGWIRQPPGKGLEWIGSIYYRGSTYYNPSLKSRVTISVDTSKNQFSLKLSSVTAADTAVYYCARRVTMVRGVKGDYFDYWGQGTLVTVSS", "VL": "DIQMTQSPSSLSASVGDRVTITCRASQGISSWLAWYQQKPEKVPKSLIYAASSLQSGVPSRFSGSGSGTDFTLTISSLQPEDFATYYCQQYNYYPLTFGGGTKVEIKR"}, "B3": {"name": "C40G1 (antibody, V domains shown)", "VH": "B2 VH", "VL": "B2 VL"}, "B4": {"name": "L66 (antibody, V domains shown)", "VH": "EVQLVESGGGVVRPGGSLRLSCAASGFTFDDYGMSWVRQAPGKGLEWVSGINWNGGSTGYADSVKGRFTISRDNAKNSLYLQMNSLRAEDTALYYCARDRVTMVRGVIMDYYGMDVWGQGTTVTVSS", "VL": "QTVVTQEPSLTVSPRGTVTLTCSSSTGAVTSGYYPGWFQLKPGQAPMSLIYSARKKHSWTPARFSGSLLGGKAALTLSGVQPEDEAEYYCLLYYGGAYVFGTGTKVTVLG"}}}
{"molecular_target": "T1, OVA (UniProt P01012 2-386)", "T1 sequence": "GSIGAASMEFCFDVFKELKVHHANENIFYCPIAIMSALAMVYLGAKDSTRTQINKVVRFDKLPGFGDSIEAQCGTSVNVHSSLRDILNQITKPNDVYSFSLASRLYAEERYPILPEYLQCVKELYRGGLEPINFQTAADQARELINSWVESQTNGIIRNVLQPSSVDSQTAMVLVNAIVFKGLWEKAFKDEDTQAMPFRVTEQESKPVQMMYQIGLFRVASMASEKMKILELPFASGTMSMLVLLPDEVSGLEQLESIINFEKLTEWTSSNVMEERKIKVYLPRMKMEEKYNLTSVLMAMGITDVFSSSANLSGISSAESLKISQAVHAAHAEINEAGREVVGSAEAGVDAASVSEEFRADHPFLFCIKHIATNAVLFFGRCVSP", "assay": "ELISA"}
{"binder": "B1", "binding result": "no binding (tested: below 0.1 at OD450nm)"}
{"binder": "B2", "binding result": "no binding (tested: below 0.1 at OD450nm)"}
{"binder": "B3", "binding result": "no binding (tested: below 0.1 at OD450nm)"}
{"binder": "B4", "binding result": "no binding (tested: below 0.1 at OD450nm)"}
{"molecular_target": "BSA (UniProt P02769 25-607)", "sequence (P02769 25-607 limits assumed)": "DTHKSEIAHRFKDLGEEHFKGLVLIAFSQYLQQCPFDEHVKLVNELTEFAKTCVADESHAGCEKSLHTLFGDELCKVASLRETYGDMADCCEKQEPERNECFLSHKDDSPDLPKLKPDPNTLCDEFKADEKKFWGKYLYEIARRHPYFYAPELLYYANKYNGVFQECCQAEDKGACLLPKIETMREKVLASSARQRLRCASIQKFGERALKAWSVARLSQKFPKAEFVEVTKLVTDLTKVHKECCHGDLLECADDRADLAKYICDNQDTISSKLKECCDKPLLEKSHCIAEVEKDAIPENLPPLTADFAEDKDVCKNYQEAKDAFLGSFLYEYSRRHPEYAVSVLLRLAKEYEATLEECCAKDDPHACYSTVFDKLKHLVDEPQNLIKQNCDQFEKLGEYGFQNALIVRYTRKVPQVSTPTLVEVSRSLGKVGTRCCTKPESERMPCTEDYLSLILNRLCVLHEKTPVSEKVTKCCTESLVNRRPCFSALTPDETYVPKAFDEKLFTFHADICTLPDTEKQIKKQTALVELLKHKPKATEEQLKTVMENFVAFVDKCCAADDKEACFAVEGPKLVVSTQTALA", "assay": "ELISA"}
{"binder": "B1", "binding result": "no binding (tested: below 0.1 at OD450nm)"}
{"binder": "B2", "binding result": "no binding (tested: below 0.1 at OD450nm)"}
{"binder": "B3", "binding result": "no binding (tested: below 0.1 at OD450nm)"}
{"binder": "B4", "binding result": "no binding (tested: below 0.1 at OD450nm)"}
